Substrate: NC(=O)[C@@H]1CCCN1C(=O)[C@H](Cc1cnc[nH]1)NC(=O)[C@@H]1CCC(=O)N1
Experiment: RP-HPLC cleavage assay with purified rhPOP, Michaelis-Menten fit (Km)
Assay type: biochemical, Homo sapiens
Conditions: occupies the S3-S1' sub-pockets

B1: Prolyl Oligopeptidase (POP) (Homo sapiens) (protein)
chain: MLSLQYPDVYRDETAVQDYHGHKICDPYAWLEDPDSEQTKAFVEAQNKITVPFLEQCPIRGLYKERMTELYDYPKYSCHFKKGKRYFYFYNTGLQNQRVLYVQDSLEGEARVFLDPNILSDDGTVALRGYAFSEDGEYFAYGLSASGSDWVTIKFMKVDGAKELPDVLERVKFSCMAWTHDGKGMFYNSYPQQDGKSDGTETSTNLHQKLYYHVLGTDQSEDILCAEFPDEPKWMGGAELSDDGRYVLLSIREGCDPVNRLWYCDLQQESSGIAGILKWVKLIDNFEGEYDYVTNEGTVFTFKTNRQSPNYRVINIDFRDPEESKWKVLVPEHEKDVLEWIACVRSNFLVLCYLHDVKNILQLHDLTTGALLKTFPLDVGSIVGYSGQKKDTEIFYQFTSFLSPGIIYHCDLTKEELEPRVFREVTVKGIDASDYQTVQIFYPSKDGTKIPMFIVHKKGIKLDGSHPAFLYGYGGFNISITPNYSVSRLIFVRHMGGILAVANIRGGGEYGETWHKGGILANKQNCFDDFQCAAEYLIKEGYTSPKRLTINGGSNGGLLVAACANQRPDLFGCVIAQVGVMDMLKFHKYTIGHAWTTDYGCSDSKQHFEWLVKYSPLHNVKLPEADDIQYPSMLLLTADHDDRVVPLHSLKFIATLQYIVGRSRKQSNPLLIHVDTKAGHGAGKPTAKVIEEVSDMFAFIARCLNVDWIP
notes: recombinant human POP (rhPOP), GST moiety removed
Question: With B1 as the protein, how does the Km read?
Answer: 690 µM

— publication PMC7112232, “Computational design of substrate selective inhibition” (PLoS Computational Biology, 2020)
